Assay results as given in patent publication US8796201B2 (The Board of Trustees of the Leland Stanford Junior …, priority 2002, dated 2014).

B1: PEP: prolyl endopeptidase; Examples 1-2: from Flavobacterium meningosepticum (US Biological); Example 11: source not stated (protein, UniProt P27028 21-705, looked up)
Prolyl endopeptidase: QNSNVLKYPETKKVSHTDTYFGTQVSDPYRWLEDDRAEDTKAWVQQEVKFTQDYLAQIPFRDQLKKQLMDIWNYEKISAPFKKGKYTYFSKNDGLQAQSVLYRKDAAGKTEVFLDPNKFSEKGTTSLASVSFNKKGTLVAYSISEGGSDWNKIIILDAETKKQLDETLLDVKFSGISWLGDEGFFYSSYDKPKEGSVLSGMTDKHKVYFHKLGTKQSQDELIIGGDKFPRRYIGAYVTDDQRYLVVSAANATNGNELYIKDLKNKTDFIPIITGFDSNVNVADTDGDTLYLFTDKDAPNKRLVKTTIQNPKAETWKDVIAETSEPLEINTGGGYFFATYMKDAIDQVKQYDKNGKLVRAIKLPGSGNASGFGGEKTEKDLYYSFTNYITPPTIFKYNVTTGNSEVYQKPKVKFNPENYVSEQVFYTSSDGTKIPMMISYKKGLKKDGKNPTILYSYGGFNISLQPAFSVVNAIWMENGGIYAVPNIRGGGEYGKKWHDAGTKMQKKNVFNDFIAAGEYLQKNGYTSKEYMALSGRSNGGLLVGATMTMRPDLAKVAFPGVGVLDMLRYNKFTAGAGWAYDYGTAEDSKEMFEYLKSYSPVHNVKAGTCYPSTMVITSDHDDRVVPAHSFKFGSELQAKQSCKNPILIRIETNAGHGAGRSTEQVVAENADLLSFALYEMGIKSLK
B2: FM PEP: recombinant prolyl endopeptidase from Flavobacterium meningosepticum (Genbank D10980) (protein)
chain: B1 Prolyl endopeptidase
B3: MX PEP: novel recombinant prolyl endopeptidase from Myxococcus xanthus (Genbank AF127082, SEQ ID NO:47) (protein, listed as Myxococcus xanthus)
chain: MSYPATRAEQVVDTLHGVQVADPYRWLEDEKAPEVQTWMTAQNAHAREALAKFPGREALAARFKELFYTDSVSTPSRRNGRFFYVRTHKDKEKAILYWRQGESGQEKVLLDPNGWSKDGTVSLGTWAVSWDGKKVAFAQKPNAADEAVLHVIDVDSGEWSKVDVIEGGKYATPKWTPDSKGFYYEWLPTDPSIKVDERPGYTTIRYHTLGTEPSKDTVVHERTGDPTTFLQSDLSRDGKYLFVYILRGWSENDVYWKRPGEKDFRLLVKGVGAKYEVHAWKDRFYVLTDEGAPRQRVFEVDPAKPARASWKEIVPEDSSASLLSVSIVGGHLSLEYLKDATSEVRVATLKGKPVRTVQLPGVGAASNLMGLEDLDDAYYVFTSFTTPRQIYKTSVSTGKSELWAKVDVPMNPEQYQVEQVFYASKDGTKVPMFVVHRKDLKRDGNAPTLLYGYGGFNVNMEANFRSSILPWLDAGGVYAVANLRGGGEYGKAWHDAGRLDKKQNVFDDFHAAAEYLVQQKYTQPKRLAIYGGSNGGLLVGAAMTQRPELYGAVVCAVPLLDMVRYHLFGSGRTWIPEYGTAEKPEDFKTLHAYSPYHHVRPDVRYPALLMMAADHDDRVDPMHARKFVAAVQNSPGNPATALLRIEANAGHGGADQVAKAIESSVDLYSFLFQVLDVQGAQGGVAAQGR

Tests used:
[1] = Double-blind crossover gluten challenge: 72-hour quantitative fecal fat test; format: in vivo, human (Celiac Sprue patients)
Excerpt: It was first established that a low-dose, short-term (5-10 g/day for 14 days) gluten oral supplement induces fat and carbohydrate malabsorption when given to asymptomatic Celiac Sprue patients on an otherwise gluten free diet. This protocol was modified to examine the effect of gluten pre-treated with pepsin, trypsin and chymotrypsin (PTC-Gluten) as compared to PTC-Gluten additionally treated with PEP (PTC-Gluten+PEP). In this study, Celiac patients maintaining a gluten-free diet ingested a supplement of 5 g/day gluten as PTC-Gluten or PTC-Gluten+PEP in an orange-lemon juice vehicle for 14 days in a double-blind crossover manner. A 6-week washout interval between individual arms of the crossover trial allowed patients to recover completely from the effects, if any, of the test material in the first arm.
Subjects and protocols: This study was approved by the Institutional Review Board of the Palo Alto Medical Foundation in Palo Alto, Calif., and all participants in the study were counseled regarding risks and signed an informed consent document. 22 patients were recruited who were in symptomatic remission on a gluten-free diet. Two patients dropped out of the study, one near the end of the first stage and the other prior to the second stage. The 20 patients who completed the study included 7 men and […] aged 21 to 78 (mean age 49). The time since diagnosis for the 20 patients ranged from 3 months to 18 years (mean 6 years). Patients provided copies of their initial small-intestinal biopsy pathology report and laboratory reports documenting a history of at least one positive celiac antibody (gliadin, endomysial or transglutaminase) to verify a diagnosis of Celiac Sprue. They also completed an entry questionnaire inquiring about their medical history, adherence to the gluten-free diet, and current symptoms. The format of the study was a double-blinded crossover in which each patient consumed either a low daily dose of a gluten supplement (5 g; equivalent of one-half slice of bread) that was predigested with pepsin, trypsin and chymotrypsin alone (PTC-Gluten) or PTC-Gluten treated with prolyl endopeptidase (PTC-Gluten+PEP). The PEP in the latter orange juice mixture was completely inactivated through a heating process following proteolysis of the gliadin peptides. […]
Studied variables: During each stage of the study, patients completed a daily questionnaire inquiring about symptoms and their adherence to the gluten-free diet. […] The serum anti-gliadin IgA antibodies and anti-tissue transglutaminase IgA and IgG antibodies were measured by an enzyme linked immunosorbent assay (ELISA) kit (INOVA Diagnostics, Inc., San Diego, Calif.). […] Total serum IgA levels were determined by an Integra instrument (Roche) (normal <81 mg/dl). […]

PQPQLPYPQPQLP = test: Site specificity of […] hydrolysis, LC/MS/MS; format: biochemical, wheat; details: 100 μM peptide, 0.1 μM enzyme, early time points
Experimental: FIG. 10. Site specificity of […] hydrolysis by individual PEPs. HPLC-UV (215 nm) traces are shown for each reaction mixture. Initial cleavage fragments (100 μM (SEQ ID NO:4) […], 0.1 μM enzyme, t=5 min) were identified by tandem mass spectrometry. The starting material (SEQ ID NO:4) […] and the cleavage fragments A: (SEQ ID NO:4, aa. 1-8) […], B: (SEQ ID NO:4, aa 7-13) YPQPQLP, C: (SEQ ID NO:12, aa 1-6) PQPQLP, D: (SEQ ID NO:4, aa 2-6) QPQLP) are indicated in the traces.
The decrease in substrate concentration as well as concomitant intermediate and product build-up were monitored with HPLC analysis. RP-HPLC was performed on a system consisting of Beckman or Rainin Dynamax SD-200, a Varian 340 UV detector set at 215 nm and 280 nm. Solvent A was H2O with 0.1% TFA and solvent B was acetonitrile with 0.1% TFA; gradient used: 0-5% B in 0-15 min, 5-30% B in 15-30′, 30-100% B in 30-35 min, 100% B for 5′; flow 1 ml/min; separation was performed on a 4.6×150 mm reverse phase C-18 column (Vydac, Hesperia, Calif., USA). Samples were centrifuged for 10 min at 13,400 g, prior to injection of 10-100 μl. […] Thus, multiple peptides accumulate during the course of the reaction, some of which are secondary PEP substrates in themselves.
To analyze the regiospecificity of hydrolysis of (SEQ ID NO:4) […] by individual PEPs, samples corresponding to early time points were further analyzed by LC/MS/MS. […]

[2] = pH stability (activity retained after acid exposure); format: in vitro ADME; details: after 10 min of incubation at pH values between 1.6 and 3.9
Experimental: pH Stability. The ability to retain enzyme activity after exposure to acidic environments was determined. […] The recovered enzyme activity was measured spectrophotometrically and compared with non-acid treated controls under identical conditions. PEP Stability. Although orally administered therapeutic proteins can be formulated to protect them from the acidic and proteolytic environment of the stomach, intrinsic acid stability of a PEP is likely to be a desirable characteristic in its use as a therapeutic agent for Celiac Sprue. […] Thus, although all PEPs appear to be moderately acid-stable, the MX PEP is most versatile. Since therapeutic efficacy would require a PEP to act upon gluten in conjunction with pancreatic proteases that are secreted into the duodenum, the resistance of FM PEP and MX PEP toward both gastric and pancreatic enzymes was evaluated. For this we pre-incubated the enzymes with physiological quantities of either pepsin (at pH 2) or a cocktail comprising of trypsin, chymotrypsin, elastase and carboxypeptidase A (at pH 6.5).

[3] = Allergenicity of the denatured protein; set-up: species or system rodents, rabbits and humans; details: in vivo
[4] = All patients with full Fecal Fat data (N = 17)
[5] = Subgroup with normal to Mild Steatorrhea (N = 8)

Molecule	PEP Effective (patients / patients with positive gluten challenge), fecal fat [1, 4]	PEP Effective, fecal fat [1, 4]	PEP Effective (patients / patients with positive gluten challenge), fecal fat [1, 5]	PEP Effective, fecal fat [1, 5]	preferred site of cleavage in PQPQLPYPQPQLP (PQPQLPYPQPQLP)	original activity retained [2]	allergenicity of the denatured protein [3]
B1	5/7	71%	4/4	100%	–	–	–
B2	–	–	–	–	PQPQLPPYP|QPQLP	50-70%	non-allergenic in rodents, rabbits and humans
B3	–	–	–	–	PQPQLP|YPQPQLP	70-90%	–
